Experimental data: patent US20250368714A1, “TREATMENT OF CANCER” (Immutep S.A.S., priority 2022, published 2025)

What was measured:
[1] = tested on: HER2 negative hormone receptor-positive metastatic breast cancer patients; assay: AIPAC Phase IIb study: paclitaxel+IMP321 vs paclitaxel+placebo, overall survival; type: in vivo, human
Method: A multicentre, placebo-controlled, double-blind, 1:1 randomised Phase IIb study in female HER2 negative hormone receptor-positive metastatic breast cancer patients was conducted. The study comprised two stages: • stage 1 which was an open-label, safety run-in stage consisting of cohorts 1 and 2 to confirm the recommended Phase II dose (RPTD) of IMP321 in combination with paclitaxel; and • stage 2 which was a placebo-controlled, double-blind randomisation stage, paclitaxel+IMP321 at the RPTD compared to paclitaxel+placebo.
The chemo-immunotherapy phase consisted of 6 cycles of 4 weeks. Patients received weekly paclitaxel at Days 1, 8 and 15 with adjunctive treatment of study agent (IMP321) on Days 2 and 16 of each 4-week cycle. After completion of the 6-cycle chemo-immunotherapy phase, responding or stable patients received study agent (IMP321) every 4 weeks during the maintenance phase for an additional period of up to 12 injections.
The chemo-immunotherapy phase consisted of 6 cycles of 4 weeks. Patients received weekly paclitaxel at Days 1, 8 and 15 with adjunctive treatment of study agent (placebo) on Days 2 and 16 of each 4-week cycle.
After completion of the 6-cycle chemo-immunotherapy phase, responding or stable patients received study agent (placebo) every 4 weeks during the maintenance phase for an additional period of up to 12 injections.
In addition, multivariate analysis was done using backward selection (p>0.15) from the univariate cox model.

[2] = tested on: Blood cell subsets (CD4, CD8, PBMCs, monocytes) and Th1 biomarker (CXCL-10); assay: AIPAC immuno-monitoring of blood cell subsets, Th1 biomarker and absolute lymphocyte count; type: in vivo, human
Method: Immuno-monitoring was also conducted. Blood cell subsets (CD4, CD8, PBMCs, monocytes) and Th1 biomarker (CXCL-10) were measured centrally. Comparison was done using 2-sided Wilcoxon test.
(§1) On the other hand, pre-study levels of CD8+ T cells were not correlated with OS in either treatment arm. Efti increases secondary target cells (CD8+ T cells) in the peripheral blood, leading to improved OS.
Increase of ALC is linked to improved survival for patients treated with efti arm, but not for patients in the placebo arm (FIG. 9). […] As this increase is observed early, it could be used in the future as a potential early on study biomarker for treatment continuation.

[3] = Pharmacokinetics of s.c. IMP321 in metastatic renal cell cancer patients; type: in vivo, human; conditions: for at least 24 hours after s.c. injection; doses of more than 6 mg
[4] = Clinical pharmacokinetics of s.c. efti in cancer patients; type: in vivo, human; conditions: for Cavg24h: cancer patients
Method: as §1
Efti doses of 6 and 30 mg given clinically lead to plasma Cmax of ≥1 ng/ml in most patients, this concentration reflecting the minimum concentration for desired efti PD effects. However, systemic efti levels of >1 ng/ml and lasting for ≥24 h have been observed in about 90% of patients receiving efti 30 mg, compared to only 20% at 6 mg.

[5] = tested on: primary and secondary immune cells; assay: PD effects in vitro and ex vivo: activation of immune cells, induction of cytokines; type: cell-based
[6] = tested on: CD4+ and CD8+ T cells numbers and activation status, IFN-γ and CXCL10; assay: PD markers of T cell immune response in patients dosed with efti every 2 weeks; type: in vivo, human
[7] = Nonclinical toxicity study; type: in vivo
[8] = human, in vivo
[9] = Clinical safety and tolerability of IMP321 (efti)
[10] = Overall population, paclitaxel+IMP321 30 mg vs paclitaxel+placebo, univariate analysis, p 0.197
[11] = Sub-group <5 years since diagnosis, multivariate analysis table, p 0.025
[12] = Sub-group <65 years, univariate analysis, p 0.017
[13] = Sub-group Luminal B, univariate analysis, p 0.049
[14] = Sub-group high (>3.65) NLR at baseline, multivariate analysis table, p 0.012
[15] = Sub-group low baseline monocytes (<0.25/nL), univariate analysis, p 0.008
[16] = Sub-group low baseline monocytes, multivariate analysis table, p 0.008
[17] = Sub-group no prior taxane therapy, multivariate analysis table, p 0.076
[18] = Sub-group no prior taxane therapy, univariate analysis, p 0.076
[19] = 8 treatment emergent adverse events in 3 of 5 patients with Cmax >10 ng/ml

B1: IMP321: recombinant soluble human LAG-3Ig fusion protein, 160-kDa dimer: extracellular domain of hLAG-3 fused to human IgG1 Fc; APC activator (protein)
chain: LQPGAEVPVVWAQEGAPAQLPCSPTIPLQDLSLLRRAGVTWQHQPDSGPPAAAPGHPLAPGPHPAAPSSWGPRPRRYTVLSVGPGGLRSGRLPLQPRVQLDERGRQRGDFSLWLRPARRADAGEYRAAVHLRDRALSCRLRLRLGQASMTASPPGSLRASDWVILNCSFSRPDRPASVHWFRNRGQGRVPVRESPHHHLAESFLFLPQVSPMDSGPWGCILTYRDGFNVSIMYNLTVLGLEPPTPLTVYAGAGSRVGLPCRLPAGVGTRSFLTAKWTPPGGGPDLLVTGDNGDFTLRLEDVSQAQAGTYTCHIHLQEQQLNATVTLAIITVTPKSFGSPGSLGKLLCEVTPVSGQERFVWSSLDTPSQRSFSGPWLEAQEAQLLSQPWQCQLYQGERLLGAAVYFTELSSPG
modifications: left off: small tags and cut ends; a dimerising Fc or GST
- Absolute gain in median OS [1, 10]: +2.9 months
- Hazard Ratio [95% CI] (OS) [1, 10]: 0.88
- Absolute gain in median OS [1, 11]: +4.8 months
- Hazard Ratio [95% CI] (OS) [1, 11]: 0.62
- Absolute gain in median OS [1, 12]: +7.5 months
- Hazard Ratio [95% CI] (OS) [1, 12]: 0.66
- Absolute gain in median OS [1, 13]: +4.2 months
- Hazard Ratio [95% CI] (OS) [1, 13]: 0.67
- Absolute gain in median OS [1, 14]: +6.9 months
- Hazard Ratio [95% CI] (OS) [1, 14]: 0.61
- Absolute gain in median OS [1, 15]: +19.6 months
- Hazard Ratio [95% CI] (OS) [1, 15]: 0.44
- Absolute gain in median OS [1, 16]: +19.6 months
- Hazard Ratio [95% CI] (OS) [1, 16]: 0.44
- Absolute gain in median OS [1, 17]: +4.8 months
- Hazard Ratio [95% CI] (OS) [1, 17]: 0.74
- Absolute gain in median OS [1, 18]: +4.8 months
- Hazard Ratio [95% CI] (OS) [1, 18]: 0.74
- improvement in median overall survival (OS) ([1]; young patients (<65 years), low baseline monocytes (<0.25/nL), or Luminal B, exploratory univariate analysis): significant and clinically meaningful improvement
- On treatment fold-change of PBMCs ([2]; IMP321 group vs placebo 1.41, p=0.041): 2.00 fold
- On treatment fold-change of T cells ([2]; IMP321 group vs placebo 1.48, p=0.086): 2.28 fold
- On treatment fold-change of CXCL10 ([2]; IMP321 group vs placebo 1.56, p=0.06): 2.78 fold
- On treatment fold-change of monocytes ([2]; IMP321 group vs placebo 2.29, p=0.025): 5.81 fold
- absolute lymphocyte count increase ([2]; efti arm, early (after 4 weeks) and sustainable): ≥ 0.2 nL⁻¹
- circulating CD8+ T cells ([2]; efti arm, fresh whole blood by FACS (n=75), samples 2 weeks after previous efti dose, not in placebo arm): sustainable, statistically significant increase
- Post baseline CD8 T cells count (median) ([2]; patients with improved OS, IMP321 group vs placebo 223, p=0.005): 377 µL⁻¹
- Post baseline CD4 T cells count (median) ([2]; patients with improved OS, IMP321 group vs placebo 736, p=0.038): 896 µL⁻¹
- blood concentration of IMP321 [3]: > 1 ng/mL
- patients with systemic efti levels of >1 ng/ml lasting for ≥24 h ([4]; 6 mg): 20%
- Cavg24h ([4]; 6 mg): 0.8 ng/mL
- patients with systemic efti levels of >1 ng/ml lasting for ≥24 h ([4]; 30 mg): about 90%
- Cavg24h ([4]; 30 mg s.c.): 3.3 ng/mL
- plasma Cmax ([4]; doses of 6 and 30 mg, in most patients): ≥ 1 ng/mL
- time until efti disappears from the bloodstream after injection ([4]; s.c. injection): 3 to 4 days
- efti concentration at which desired PD effects start [5]: 1 to 10 ng/mL
- proportion of patients with upregulation of at least one PD marker (1.4-fold increase compared to baseline) ([6]; 1 mg): about 50%
- proportion of patients with upregulation of at least one PD marker (1.4-fold increase compared to baseline) ([6]; 30 mg): about 90%
- NOAEL dose [7]: 15 mg/kg
- safety and tolerability of dose [8]: safe and tolerable
- safety of s.c. doses ([8]; sc): safe
- grade ≥3 adverse events related to efti ([9]; 5 patients with Cmax of >10 ng/ml at dose 1): no grade ≥3 adverse events related to efti
- adverse reactions mild in severity [9, 19]: 62.5%
- adverse reactions moderate in severity [9, 19]: 37.5%
- dose limiting toxicity ([9]; observed to date): No dose limiting toxicity
